Experimental findings from US10251952B2, “Humanized anti-tau(pS422) antibody brain shuttles and use thereof” (Hoffmann-La Roche Inc., priority 2014, dated 2019) are described below.

The target in one experiment is T1, NPY5R (Homo sapiens, UniProt Q15761).
T1 sequence (Q15761 1-445): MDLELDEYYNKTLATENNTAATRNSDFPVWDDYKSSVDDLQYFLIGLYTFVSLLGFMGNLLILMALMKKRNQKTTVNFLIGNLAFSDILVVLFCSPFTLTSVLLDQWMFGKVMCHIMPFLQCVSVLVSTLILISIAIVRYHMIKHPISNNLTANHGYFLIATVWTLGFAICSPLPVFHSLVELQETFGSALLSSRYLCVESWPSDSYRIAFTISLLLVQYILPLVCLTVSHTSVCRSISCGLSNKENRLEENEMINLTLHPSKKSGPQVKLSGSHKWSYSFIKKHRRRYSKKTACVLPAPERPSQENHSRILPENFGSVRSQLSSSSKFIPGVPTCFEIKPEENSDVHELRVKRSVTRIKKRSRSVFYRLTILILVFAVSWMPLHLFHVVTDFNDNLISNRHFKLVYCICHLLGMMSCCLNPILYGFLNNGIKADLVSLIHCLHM
Description: effect on the Y2Receptor family.

Another experiment addresses T2, NPY1R (Homo sapiens, UniProt P25929).
T2 sequence (P25929 1-384): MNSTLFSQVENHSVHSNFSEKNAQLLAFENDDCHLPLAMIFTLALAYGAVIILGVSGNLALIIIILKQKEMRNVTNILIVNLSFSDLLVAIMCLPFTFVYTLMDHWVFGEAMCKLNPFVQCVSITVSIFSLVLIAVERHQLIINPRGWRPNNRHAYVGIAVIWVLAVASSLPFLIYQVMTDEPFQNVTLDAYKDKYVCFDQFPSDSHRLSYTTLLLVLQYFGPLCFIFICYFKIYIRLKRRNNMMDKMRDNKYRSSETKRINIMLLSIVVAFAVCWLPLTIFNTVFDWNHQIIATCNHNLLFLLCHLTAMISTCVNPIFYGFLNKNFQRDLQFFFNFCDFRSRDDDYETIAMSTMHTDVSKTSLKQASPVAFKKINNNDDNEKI
Description: effect on the Y2Receptor family.

The next experiment deals with NPY4R (Homo sapiens, UniProt P50391). Description: effect on the Y2Receptor family.
Sequence of NPY4R (P50391 whole entry, species assumed): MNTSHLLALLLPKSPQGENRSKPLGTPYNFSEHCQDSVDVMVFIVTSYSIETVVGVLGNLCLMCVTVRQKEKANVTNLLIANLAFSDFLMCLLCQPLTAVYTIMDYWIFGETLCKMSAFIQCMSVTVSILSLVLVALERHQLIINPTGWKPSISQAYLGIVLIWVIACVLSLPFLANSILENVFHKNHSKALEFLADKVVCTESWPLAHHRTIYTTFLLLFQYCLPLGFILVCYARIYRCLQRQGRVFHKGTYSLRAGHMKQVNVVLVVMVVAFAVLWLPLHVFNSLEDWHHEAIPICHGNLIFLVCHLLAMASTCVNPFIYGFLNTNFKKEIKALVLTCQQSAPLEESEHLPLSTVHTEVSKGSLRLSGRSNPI
The next experiment deals with T3, NPY2R (Homo sapiens, UniProt P49146).
T3 sequence (P49146 1-381): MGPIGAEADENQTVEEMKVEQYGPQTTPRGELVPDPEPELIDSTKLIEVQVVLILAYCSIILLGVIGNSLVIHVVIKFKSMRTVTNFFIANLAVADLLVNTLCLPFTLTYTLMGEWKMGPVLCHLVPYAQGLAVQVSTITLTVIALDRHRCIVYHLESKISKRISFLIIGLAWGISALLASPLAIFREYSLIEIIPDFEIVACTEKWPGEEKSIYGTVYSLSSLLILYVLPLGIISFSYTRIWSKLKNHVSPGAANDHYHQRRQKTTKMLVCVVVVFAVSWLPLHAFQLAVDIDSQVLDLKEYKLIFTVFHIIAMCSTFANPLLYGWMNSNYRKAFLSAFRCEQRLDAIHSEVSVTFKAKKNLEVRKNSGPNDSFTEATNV
Description: effect on the Y2Receptor family.

Experiment [1] concerns the target anti-HeliCar motif amino acid sequence antibody. Description: binding of PYY peptides to anti-HeliCar motif antibody.
The target of experiment [2] is T4, human tau(pS422) (Homo sapiens, UniProt P10636, S739X). Description: IHC grading in summary of biological properties. The conditions noted are these: key not given. The text has this: The following table summarizes the biological properties of selected humanized VH/VL combinations.
Another experiment deals with tau(pS422) aggregates (Homo sapiens, UniProt P10636, S739X). Description: ELISA binding specificity of VH/VL combinations. As for the experimental part:
(§1) In the following Table the binding specificity for different VH/VL combinations are shown (EC50 values in [ng/ml]).
(§2) Non-biotinylated peptide/protein/aggregate was added to non-coated Maxisorb plates, biotinylated peptide/protein/aggregate in PBS was added to streptavidin-coated Maxisorb plates, and plates were incubated over-night. The supernatant was discarded and the wells washed three times with 90 μl wash buffer (lx PBS/0.1% Tween 20). Remaining reactive spots were blocked with blocking buffer (lx PBS/2% BSA (Bovine Serum Albumin Fraction V, fatty acid free, Roche, Cat. No.: 10735078001)/0.05% Tween 20) by incubating for one hour. The supernatant was discarded and the wells washed three times with 90 μl wash buffer. Samples and control antibody were prepared in 12 dilutions (1:2) in ELISA buffer (lx PBS/0.5% BSA (Bovine Serum Albumin Fraction V, fatty acid free, Roche, Cat. No.: 10735078001)/0.05% Tween 20) with a start concentration of 500 ng/ml. The incubation time was 60 minutes at room temperature on a shaker. The supernatant was discarded and the wells washed three times with 90 μl wash buffer. Solutions of secondary antibody were prepared in ELISA buffer. A total of 25 μl antibody-mix was transferred to all wells of the assay plate and the plate was thereafter incubated on shaker for 60 minutes at room temperature. The supernatant was discarded and the wells were washed three times with 90 μl wash buffer. 25 μl of ABTS solution was added to all wells. The absorbance was read at 405 nm-492 nm.
(An ELISA detects its analyte on a solid surface through an enzyme-linked reagent.)

For experiment [3], the target named is T5, tau peptide residues 416 to 430 of SEQ ID NO: 01 (Homo sapiens, UniProt P10636).
T5 construct: 416 to 430
Description: ELISA binding specificity of VH/VL combinations. As for the experimental part:
as §1, §2

The target of experiment [4] is tau(pS422) fragment SEQ ID NO: 03 (Homo sapiens, UniProt P10636, S739X). Description: ELISA binding specificity of VH/VL combinations. As to the method:
as §1, §2

Experiment [5] has as its target T6, S422A tau mutant S422A SEQ ID NO: 01 (Homo sapiens, UniProt P10636, S739A).
T6 construct: (A)=full length human tau S422A mutant
Description: ELISA binding specificity of VH/VL combinations. As for the experimental part: as §1, §2

Experiment [6] concerns the target full length tau(pS422) SEQ ID NO: 02 (Homo sapiens, UniProt P10636, S739X). Description: ELISA binding specificity of VH/VL combinations. As to the method: as §1, §2
Experiment [7] concerns the target T4, human tau(pS422). Description: BIAcore kinetic screening and kinetic rates of humanized VH/VL combinations. The conditions noted are these: for MR: molar ratio; for BIAcore: summary grading 1 to 4, key not given. In kind it is binding. The method in brief: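 Antibodies (44–70 nM) were captured on an anti-human-Fc CM5 surface in HBS-EP, pH 7.4. Phospho-tau, non-phospho-tau and T422S mutant analytes were injected at 300 nM for 3 min, with 5 min dissociation. Outputs were binding/stability late, Langmuir kd, half-life and molar ratio; kinetic rates came from 1.2–300 nM series at 25 and 37 °C, Langmuir 1:1 global fit.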

Experiment [8] deals with human tau phosphorylated at S422 (Homo sapiens, UniProt P10636, S739X). Description: Western Blot selectivity of humanized VH/VL combinations. It counts as binding. As to conditions: summary grading 1 to 4, key not given. An excerpt: FIG. 5 is a Western Blot showing the selectivity of selected humanized VH/VL combinations; (1)=VH00/VL00, (2)=VH32/VL21, (3)=VH20/VL22, (4)=VH32/VL22, (5)=VH33/VL22.
The sensitivity of selected humanized VH/VL combinations to the human tau mutant S422A can be seen from the Western Blots shown in FIG. 5. All humanized variants selectively bind to human tau phosphorylated at S422.
A general note: Immunoblotting shows a protein as a band on a membrane.

Where two headings read alike, the source gives them in different places. Square brackets hold non-standard residues; d marks the D form. Ends that are not written are not given here. NMeR = CN[C@@H](CCCNC(=N)N)C(=O)O; Pqa = not defined here

T6 sequence (P10636 1-441 isoform P10636-8 S422A): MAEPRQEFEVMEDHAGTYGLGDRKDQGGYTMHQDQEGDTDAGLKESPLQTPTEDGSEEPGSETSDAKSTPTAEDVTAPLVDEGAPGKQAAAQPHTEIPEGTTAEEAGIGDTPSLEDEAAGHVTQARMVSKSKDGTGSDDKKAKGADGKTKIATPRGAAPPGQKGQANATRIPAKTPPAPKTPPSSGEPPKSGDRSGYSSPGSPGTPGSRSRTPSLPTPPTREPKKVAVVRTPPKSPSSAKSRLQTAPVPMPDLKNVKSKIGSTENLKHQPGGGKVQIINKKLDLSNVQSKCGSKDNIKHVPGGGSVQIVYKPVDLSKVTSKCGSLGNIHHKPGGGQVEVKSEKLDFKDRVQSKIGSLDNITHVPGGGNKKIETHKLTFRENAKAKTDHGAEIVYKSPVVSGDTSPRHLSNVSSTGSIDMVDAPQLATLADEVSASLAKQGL

As to “Ac-Ile-Lys-Pqa-Arg-His-Tyr-Leu-Asn-Trp-Val-Thr-Arg-Gln-(NMe)-Arg-Try-NH2 * 4 HOAc (Ac-IK[Pqa]RHYLNWVTRQ[NMeR]Y-NH2; reading uncertain; also: salt: 4 HOAc, printed as Ac-Ile-Lys-Pqa-Arg-His-Tyr-Leu-Asn-Trp-Val-Thr-Arg-Gln-(NMe)-Arg-Try-NH2 * 4 HOAc) [reference compound]”, the NPY5R entry in the experiment with NPY5R is “inactive”. Besides, the NPY1R entry in the experiment with NPY1R is “inactive”. The NPY4R result with NPY4R was “inactive”. For the same molecule, the NPY2R in the experiment with NPY2R is reported as 1.0 nM.
For orientation: Kd means the concentration at which binding is half-saturated. Take “IKPEAPGEDASPEAHLANEVARLHYLNLVTRQRY-NH2 [PYY_HeliCar]”: in experiment [1], the affinity, expressed as Kd, was 12 nM. In addition, the NPY5R result at NPY5R is “inactive”. The NPY4R entry at NPY4R is “inactive”. Moreover, the NPY2R at NPY2R is recorded as 6.38 nM.

B1: VH32/VL21: humanized anti-human tau(pS422) antibody; VH SEQ ID NO: 19, VL SEQ ID NO: 16 (antibody, V domains shown)
VH: EVQVLESGGGLVQPGGSLRLSCAVSGFSLSSNAINWVRQAPGKGLEWVGYIAVSGNTYYASWAKGRFTISRDNSKNTVYLQMNSLRAEDTAVYYCGKSNIWGQGTLVTVSS
VL: AQVMTQSPSSLSASVGDRVTITCRSSQSVRTNKLAWFQQKPGQPPKRLIYSASTLDFGVPSRFSGSGSGTEFTLTISSLQPEDFATYYCLGYFDSSADIVAFGGGTKVEIK
modifications: humanized sequence
As to B1, the IHC in the experiment with human tau(pS422) [2] is 3. Also, the “EC50 tau(pS422) aggregates” value with tau(pS422) aggregates is listed as 9.4 ng/ml. The “EC50 tau peptide residues 416 to 430 of SEQ ID NO: 01” value in experiment [3] was determined as 0.634 µg/mL. In [4], the “EC50 tau(pS422) fragment SEQ ID NO: 03” value was 4.4 ng/ml. Moreover, the “EC50 S422A tau mutant S422A SEQ ID NO: 01” value in experiment [5] was found to be 0.0215 µg/mL. Besides, in experiment [6], the “EC50 full length tau(pS422) SEQ ID NO: 02” value is 2.9 ng/ml. In addition, in the experiment with human tau(pS422) [7] (25 °C), the “t/2diss 25° C.” value was 26 min and the MR was 0.5. The Kd with human tau(pS422) [7] (25 °C, read-out: KD 25° C.) came to 18 nM. In the experiment with human tau(pS422) [7] (37 °C), the “t/2diss 37° C.” value is recorded as 9 min and the MR is listed as 0.6. Besides, the Kd with human tau(pS422) [7] (37 °C, read-out: KD 37° C.) worked out at 32 nM. Further, in the experiment with human tau(pS422) [7], the BIAcore turned out to be 2. For the same molecule, in [8], the WB is given as 2.

B2: VH32/VL22: humanized anti-human tau(pS422) antibody; VH SEQ ID NO: 19, VL SEQ ID NO: 17 (antibody, V domains shown)
VH: EVQVLESGGGLVQPGGSLRLSCAVSGFSLSSNAINWVRQAPGKGLEWVGYIAVSGNTYYASWAKGRFTISRDNSKNTVYLQMNSLRAEDTAVYYCGKSNIWGQGTLVTVSS
VL: AQVMTQSPSSLSASVGDRVTITCRSSQSVRTNRLAWFQQKPGQPPKRLIYSASTLDYGVPSRFSGSGSGTEFTLTISSLQPEDFATYYCLGYFDSSADIVAFGGGTKVEIK
modifications: humanized sequence
With B2, in the experiment with human tau(pS422) [2], the IHC is 1. The “EC50 tau(pS422) aggregates” value with tau(pS422) aggregates is on record as 8.3 ng/ml. Moreover, the “EC50 tau peptide residues 416 to 430 of SEQ ID NO: 01” value in experiment [3] was 0.048 µg/mL. Also, the “EC50 tau(pS422) fragment SEQ ID NO: 03” value in experiment [4] was determined as 5.6 ng/ml. Further, in [5], the “EC50 S422A tau mutant S422A SEQ ID NO: 01” value turned out to be 0.0174 µg/mL. The “EC50 full length tau(pS422) SEQ ID NO: 02” value in experiment [6] was 3.5 ng/ml. For the same molecule, in the experiment with human tau(pS422) [7] (25 °C), the “t/2diss 25° C.” value was determined as 29 min and the MR is on record as 0.5. Further, the Kd with human tau(pS422) [7] (25 °C, read-out: KD 25° C.) was determined as 14 nM. For the same molecule, in the experiment with human tau(pS422) [7] (37 °C), the “t/2diss 37° C.” value was 8 min and the MR is given as 0.6. The Kd in the experiment with human tau(pS422) [7] (37 °C, read-out: KD 37° C.) was determined as 31 nM. The BIAcore with human tau(pS422) [7] was determined as 1. The WB in [8] is given as 1.
